Test results reported in the nanobody polyreactivity screen of Harvey et al. (2022).

Test: yeast display, Sf9 membrane polyspecificity reagent, FACS + sequencing; frameworks hold sequencing errors
Outline: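 After 36–48 hours of galactose induction, yeast (Saccharomyces cerevisiae BJ5465) displaying a synthetic nanobody library were stained at 4 °C for 1 hour with 10% biotinylated, detergent-solubilized Sf9 membrane reagent. Streptavidin microbeads enriched the stained cells before FACS sorting into low and high (top ~1%) gates on anti-HA and streptavidin fluorescence. Each clone's polyreactivity label reflects its gate of origin.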

Sequence | polyreactivity (PSR sort gate)
QVQLVESGGGLVQAGGSLRLSCAASGRTFYTNTMGWYRQAPGKERELVAAISYSGSSTYYADSVKGRFTISRDNAKNTVYLQMNCLKPEDTAVYYCNAVRYYRYYYWGQGTQVTVSS | low polyreactivity
QVQLVESGGGLVQAGGSLRLSCAASGRTFYTYAMGWYRQAPGKERELVAAISISGSRTYYADSVKGRFTISRDNAKNTVYLQMNSLKPEDTAVYYCAADRSYWAYVFQYVSYGEDYWGQGTQVTVSS | high polyreactivity
QVQLVESGGGLVQAGGSLRLSCAASGRTFYTYAMGWYRQAPGKERELVAAISSGGSTYYADSVKGRFTISRDNAKNTVYLQMNSLKPEDTAVYYCAARYSKRVWYGYWGQGTQVTVSS | high polyreactivity
QVQLVESGGGLVQAGGSLRLSCAASGRTFYTYAMGWYRQAPGKERELVASISRSGSGTFYADSVKGRFTISRDNAKNTVYLQMNSLKPEDTAVYYCNAVSAAKIPFQKYGYWGQGTQVTVSS | high polyreactivity
QVQLVESGGGLVQAGGSLRLSCAASGRTFYVNALGWYRQAPGKERELVAGISFSDGSTYYADSVKGRFTISRDNAKNTVYLQMNSLKPEDTAVYYCATVGAFDIYYGYGYWGQGTQVTVSS | low polyreactivity
QVQLVESGGGLVQAGGSLRLSCAASGRTFYVNAMGWYRQAPGKERELVAAISRSGRTNYADSVKGRFTISRDNAKNTVYLQMNSLKPEDTAVYYCAAALSNVRNVRSPYDYWGQGTQVTVSS | high polyreactivity
QVQLVESGGGLVQAGGSLRLSCAASGRTFYVNAMGWYRQAPGKERELVARISSSGITYYADSVKGRFTISRDNAKNTVYLQMNSLKPEDTAVYYCAAEYRSYSTLNRKFWYSPEYDYWGQGTQVTVSS | low polyreactivity
QVQLVESGGGLVQAGGSLRLSCAASGRTFYVNAMGWYRQAPGKETELVAAISSGSSTDYADSVKGRFTISRDNAKNTVYLQMNSLKPEDTAVYYCAKRWRRRFVDVWSLYDYWGQGTQVTVSS | low polyreactivity
QVQLVESGGGLVQAGGSLRLSCAASGRTFYVNTMGWYRQAPGKERELVAAITSRGGRTHYADSVKGRFTISRDNAKNNVYLQMNSLKPEDTAVYYCAAKITAYWRYISDYGYWGQGTQVTVSS | high polyreactivity
QVQLVESGGGLVQAGGSLRLSCAASGRTFYVNTMGWYRQATGKETELVARITRGGSTYYADSVKGRFTISRDNAKNTVYLQMNSLKPEDTAVYYCATDHFPVYSTHVIYEFDYWGQGTQVTVSS | low polyreactivity
QVQLVESGGGLVQAGGSLRLSCAASGRTFYVYAMGWYRQAPGKERELVAAITRGGRTKYADSVKGRFTISRDNAKNTVYLQMNSLKPEDTAVYYCATVASPNRGGVSRYDYWGQGTQVTVSS | high polyreactivity
QVQLVESGGGLVQAGGSLRLSCAASGRTFYWNAMGWSRQAPGKERELVASINCGGSTYYADSVKGRFTISRDNAKNTVYLQMNSLKPEGTAVYYCNAESYEFHRAWGDYDYWGQGTQVTVSS | low polyreactivity
QVQLVESGGGLVQAGGSLRLSCAASGRTFYWNAMGWYRQAPGKERELVAAIRWRGGNTYYADSVKGRFTISRDNAKNTVYLQMNSLKPEDTAVYYCAAAGGKSEMGYWGQGTQVTVSS | high polyreactivity
QVQLVESGGGLVQAGGSLRLSCAASGRTFYWNAMGWYRQAPGKERELVAAISWRGGSTYYADSVKGRFTISRDNAKNTVYLQMNSLKPEDTAVYYCAAYHSREYDYWGQGTQVTVSS | high polyreactivity
QVQLVESGGGLVQAGGSLRLSCAASGRTFYWNTMGWYRQAPGKERELVAAINYSGGSTYYADSVKGRFTISRDNAKNTVYLQMNSLKPEDTAVYYCAAYFHGYKSQHRARSEYNYWGQGTQVTVSS | high polyreactivity
QVQLVESGGGLVQAGGSLRLSCAASGRTFYWYAMGWYRQAPGKERELVAAIRKTDTSTYYADSVKGRFTISRDNAKNTVYLQMNSLKPEDTAVYYCAARSTYSSGKYGYKYDYWGQGTQVTVSS | high polyreactivity
QVQLVESGGGLVQAGGSLRLSCAASGRTFYYAMGWYRQAPGTERELVATITSGGSTNYADSVKGRFTISRDNAKNTVYLQMNSLKPEDTAVYYCNRDIPPGNYYKALYYYWGQGTQVTVSS | low polyreactivity
QVQLVESGGGLVQAGGSLRLSCAASGRTFYYNAMGGYRPAPGKERELVATITWTGDSTYADSVKGRFTISRDNAKNTVYLQMISLKPEDTAVYYCAAGKPVILTGDYDYWGQGTQVTVSS | low polyreactivity
QVQLVESGGGLVQAGGSLRLSCAASGRTFYYNAMGWYRQAPGKEREFVAAIRYSGGITYYADSVKGRFTISRDNAKNTVYLQMNSQKPEDTAVYYCAADYVSRRYYYWGQGTQVTVSS | high polyreactivity
QVQLVESGGGLVQAGGSLRLSCAASGRTFYYNAMGWYRQAPGKEREFVAGISYGGTTTYYADSVKGRFTISRDNAKNTVYLQMNSLKPEDTAVYYCAAGYTWRQSWYPFDYWGQGTQVTVSS | high polyreactivity
QVQLVESGGGLVQAGGSLRLSCAASGRTFYYNAMGWYRQAPGKERELVAAITSRGTTYYADSVKGRFTISRDNAKNTVYLQMNSLKPEDTAVYYCAALALYRAQGNLDYWGQGTQVTVSS | high polyreactivity
QVQLVESGGGLVQAGGSLRLSCAASGRTFYYYAMGWNRQAPGKEREFVASITWRGGRTYYADSVKGRFTISRDYAKNTVYLQMNSLKPEDTAVYYCAADGSYAIGGYGYWGQGTQVTVSS | high polyreactivity

Sequence | polyreactivity (PSR sort gate)
QVQLVESGGGLVQAGGSLRLSCAASGRTFYYYAMGWYRQAPGKEREFVAAIRFSGGNTYYADSVKGRFTISRDNAKNTVYLQMNSLKPVDTAVYYCAARRLLYKYWTGGPYDYWGQGTQVTVSS | high polyreactivity
QVQLVESGGGLVQAGGSLRLSCAASGRTFYYYAMGWYRQAPGKERELVAAIRWRGGRTYADSVKGRFTISRDNAKNTVYLQMNSLKQEDTAVYYCNAGFHYPSTYWIYYSGGNYWGQGTQVTVSS | high polyreactivity
QVQLVESGGGLVQAGGSLRLSCAASGRTFYYYAMGWYRQAPGKERELVAAISSRGGRTYYADSVKGRFTISRDNAKNTVYLQMNSLKPEDTAVYYCAKVVAYYDRDSWGQGTQVTVSS | high polyreactivity
QVQLVESGGGLVQAGGSLRLSCAASGRTFYYYAMGWYRQAPGKERELVAAISWGGGRTYYADSVKGRFTISRDNAKNTVYLQMNSLKPEDTAVYYCNAVRTTPSGSLPLAYDYWGQGTQVTVSS | low polyreactivity
QVQLVESGGGLVQAGGSLRLSCAASGRTFYYYAMGWYRQAPGKERELVAAISWRGGSTYYADSVKGRFTISRDNAKNTVYLQMNSLKPEDTAVYYCAVYTTYSRYRGYDYWGQGTQVTVSS | high polyreactivity
QVQLVESGGGLVQAGGSLRLSCAASGRTFYYYAMGWYRQAPGKERELVAGISWSAGSTYYADSVKGRFTISRDNAKNTVYLQMNSLKPEDTAVYYCAARYWQSYRSQVTHSSTLDYWGQGTQVTVSS | low polyreactivity
QVQLVESGGGLVQAGGSLRLSCAASGRTFYYYAMGWYRQAPGKERELVARIRSGGSTNYADSVKGRFTISRDNAKNTVYLQMNSLKPEDTAVYYCNSMGAKGYVKGFDYWGQGTQVTVSS | low polyreactivity
QVQLVESGGGLVQAGGSLRLSCAASGRTFYYYAMGWYRQAPGKERELVATITKSSGSTSYADSVKGRFTISRDNAKNTVYLQMNSLKPEDSAVYSCARRIKWGKFKGWNYPAHNYWGQGTQVTVSS | high polyreactivity
QVQLVESGGGLVQAGGSLRLSCAASGRTFYYYARGWYRQAPGKEREVVASITSGDGTYYADSVQGRFTISRDYAQNTVYLQMNSLKPEATAVYYCAADIFYKFSYYPWYPYRDYYYWGQGTQVTVSS | low polyreactivity
QVQLVESGGGLVQAGGSLRLSCAASGRTFYYYTMGWYRPAPGKERELVAAISSTGNTYYADSVKGRFTISRDNAKNTVYLQMNSLKPEDTAVYYCAALRYVNLLAQAYEYWGQGTQVTVSS | high polyreactivity
QVQLVESGGGLVQAGGSLRLSCAASGRTFYYYTMGWYRQAPGKEREFVAAIRRSGGNTRYADSVKGRFTISRDNAKNTVYLQMNSLKPEDTAVYYCNAGYGYYYGRILQERDYWGQGTQVTVSS | high polyreactivity
QVQLVESGGGLVQAGGSLRLSCAASGRTFYYYVMGWYRQAPGKERELVAAINSGGNTNYADSVKGRFTISRDNAKNTVYLQMNSLKPEDTAVYYCAADHYRSFRYFESSSTHDYWGQGTQVNVSS | low polyreactivity
QVQLVESGGGLVQAGGSLRLSCAASGRTGVNAMGWYRQAPGKERELVAAINNGDSTYYADSVKGRFTISRDNAKKTVYLQMNSLNPEDTAVYYCAAGLDEGDYWQESDYWGQGTQVTVSS | low polyreactivity
QVQLVESGGGLVQAGGSLRLSCAASGRTIASYTMGWYRQAPGKERELVAAISKSGGSTYYADSVKGRFTISRDNAKNTVYLQMNSLKPEDTAVYYCAKRRSGNVRKYDYWGQGTQVTVSS | high polyreactivity
QVQLVESGGGLVQAGGSLRLSCAASGRTIAYNAMGWYRQAPGKERELVAAISWSGGSTYYADSVKGRFTISRDNAKNTVYLQMNSLKPEDTAVYYCAKRFGQYRYPYDYWGQGTQVTVSS | high polyreactivity
QVQLVESGGGLVQAGGSLRLSCAASGRTIDHYAMGWYRQAPGKERELVAAISTTGGSTYYADSVKGRFTISRDNAKNTVYLQMNSLKPEDTAVYYCAARQRYFWYTTNYNYWGQGTQVTVSS | high polyreactivity
QVQLVESGGGLVQAGGSLRLSCAASGRTIDPNAMGWYRQAPGKERELVAAITRTGVRTYYADSVKGRFTISRDNAKNTVYLQMNSLKPEDTAVYYCNRYGARSNDYWGQGNQVTVSS | low polyreactivity
QVQLVESGGGLVQAGGSLRLSCAASGRTIDSNAMGWYRQAPGKERELVAAISSDGGSTYYADSVKGRFTISRDNAKNTVYLQMNSLKPEDTAVYYCNKDDPVDGPLYFRKYDYWGQGTQVTVSS | low polyreactivity
QVQLVESGGGLVQAGGSLRLSCAASGRTIDYNGMGWYRQAPGKERELVAVISTSGGSTFYADSVKGRFTISRDNAKKTVYLQMNSLKPEDTAVYYCAADFIVAYTLHGSYDYWGQGTQVTVSS | low polyreactivity
QVQLVESGGGLVQAGGSLRLSCAASGRTIEGYAMGCYRQAPGKERELVAAISRRGGSTYYADSVKGRFTISRDNAKNTVYLQMNSLKPEDTAVYYCAARDGSTGAVRYYYWGQGTQVTVSS | high polyreactivity
QVQLVESGGGLVQAGGSLRLSCAASGRTIEHSAMGWYRQAPGKERELVAAINSSDGGTYYADSVKGRFTISRDNPKNTVYLQMNSLKPEDTAVYYCAAAEFGSVPGYEMDYWGHGTQVTVSS | low polyreactivity
